Results reported in patent publication US20240083986A1 (published 2024).

T1: Apple (Mal d 1, MyBiosource, Cat #MBS1224919) (Apple, UniProt P43211 2-159, limits assumed)
T1 construct: Bought reagent
T1 sequence (looked up): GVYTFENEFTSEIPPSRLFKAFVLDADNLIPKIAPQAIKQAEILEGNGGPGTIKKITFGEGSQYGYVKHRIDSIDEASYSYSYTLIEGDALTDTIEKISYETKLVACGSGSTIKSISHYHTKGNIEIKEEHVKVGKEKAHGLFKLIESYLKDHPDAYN

T2: CHO produced recombinant Bet v 1 containing a S85A mutation with a C-terminal myc-myc hexahistidine tag … (Betula verrucosa (birch))
T2 chain: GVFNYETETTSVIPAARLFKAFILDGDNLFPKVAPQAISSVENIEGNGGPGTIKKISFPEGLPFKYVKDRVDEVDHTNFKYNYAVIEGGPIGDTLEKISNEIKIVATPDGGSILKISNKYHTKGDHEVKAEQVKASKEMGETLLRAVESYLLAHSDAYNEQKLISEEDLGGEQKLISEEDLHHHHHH

T3: European Hornbeam (Car b 1 isoform 2, MyBiosource, Cat #MBS1043940) (European Hornbeam, UniProt P38950 2-160, limits assumed)
T3 construct: Bought reagent
T3 sequence (looked up): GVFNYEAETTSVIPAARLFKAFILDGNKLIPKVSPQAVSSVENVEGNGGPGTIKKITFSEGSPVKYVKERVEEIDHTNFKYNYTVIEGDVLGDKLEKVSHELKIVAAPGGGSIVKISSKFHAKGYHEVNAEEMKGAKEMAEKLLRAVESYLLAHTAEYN

T4: European Hornbeam (Car b 1 isoform 1A & 1B, MyBiosource, Cat #MBS1200018) (European Hornbeam, UniProt P38949 2-160)
T4 construct: Bought reagent
T4 sequence (looked up): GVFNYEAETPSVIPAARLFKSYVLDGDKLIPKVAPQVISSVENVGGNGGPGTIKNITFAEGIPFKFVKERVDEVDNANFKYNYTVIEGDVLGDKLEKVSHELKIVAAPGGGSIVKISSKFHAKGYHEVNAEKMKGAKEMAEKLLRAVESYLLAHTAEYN

T5: Alder (Aln g 1, MyBiosource, Cat #MBS1041484) (Alder, UniProt P38948 2-160, limits assumed)
T5 construct: Bought reagent
T5 sequence (looked up): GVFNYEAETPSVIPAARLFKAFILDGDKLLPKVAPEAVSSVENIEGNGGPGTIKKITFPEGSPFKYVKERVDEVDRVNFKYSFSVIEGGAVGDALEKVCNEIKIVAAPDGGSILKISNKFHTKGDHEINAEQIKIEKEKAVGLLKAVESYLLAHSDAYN

T6: Celery (Api g 1, MyBiosource, Cat #MBS1171376) (Celery, UniProt P49372 1-154, limits assumed)
T6 construct: Bought reagent
T6 sequence (looked up): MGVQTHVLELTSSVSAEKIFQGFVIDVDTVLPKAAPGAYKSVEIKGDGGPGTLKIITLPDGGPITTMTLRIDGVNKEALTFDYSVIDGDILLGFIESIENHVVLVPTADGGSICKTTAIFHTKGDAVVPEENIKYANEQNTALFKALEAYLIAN

B1: H4H16979P (antibody, human IgG4, V domains shown)
VH: QVQLVQSGAEVKKPGASVKVSCKASGYTFIAYYLHWVRQAPGQGLEWMGLLNPYTGGSYYTQKFQGRVTMTRDTSIDTAYMELNSLRSDDTAIYYCARDKRSYYIPYAFEIWGQGTMVTVSS
VL: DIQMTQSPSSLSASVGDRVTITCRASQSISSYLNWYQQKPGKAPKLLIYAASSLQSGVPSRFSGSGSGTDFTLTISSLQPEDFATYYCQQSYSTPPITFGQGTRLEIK
notes: Fully human antibody with human IgG4 Fc (H4H prefix)
B2: H4H17027P (antibody, human IgG4, V domains shown)
VH: EVQLVESGGGLVQPGGSLRLSCAASGFTFRNYAMHWVRQAPGEGLEWVAAIYRNSDSIDYADSVKGRFTISRDNAKNSLYLQMNSLKTEDTALYYCAKDEGFLEYFDSWGQGTLVTVSS
VL: EIVLTQSPGTLSLSPGERASLSCRASQSVSSSFLAWYQQKPGQAPRLLIYGVSSRFIGIPDRFSGGGSGTDFTLTITRLEPEDFAVYYCQQYGRSPWTFGQGTKVEIK
notes: as for B1
B3: H4H17015P (antibody, human IgG4, V domains shown)
VH: QVQLQESGPGLVKPSQTLSLTCTVSGGSISSADHYWSWIRQQPGKGLEWIGYISYRGTTYYNPTLESRVSISVDTFKNQFSLMLHSVTVADTAVYYCAKVLQGLVRFRDYGFDVWGQGTTVTVSS
VL: DIQLTQSPPFLSASVGDRVTITCWASQDISSYLAWYQQNPGKSPKLLIYDAFTLHTGVPSRFSGSGSGTEFTLTISSLQPEDFATFYCQHLYSFPFTFGPGTKVDIK
notes: as for B1
B4: H4H16991P (antibody, human IgG4, V domains shown)
VH: QVQLVQSGAEVRKPGASVKVSCKASGYTFTGYYLHWVRQAPGQGLEWMGLINPNTGGTNFAQKFQGRVTMTRDSSISAAYMELSRLRSDDTAVYYCARQHWNRYFDNWGQGTLVTVSS
VL: DIQMTQSPSTLSASVGDRVTITCRASQSVGNWLAWYQQKPGKAPKLLIQEASSIESGVPSRFSGSGSGTEFTLIVSSLQPDDFATYYCQQYNSYSWTFGHGTKVEIK
notes: as for B1
B5: H4H17001P (antibody, human IgG4, V domains shown)
VH: QVQLVESGGGLVKPGGSLRLSCAASGFTFSDYYMNWIRQAPGKGLEWISLISSSGSAIYYSDSVKGRFTISRDNARKSLYLQVNSLRAEDTAVYYCARDRGEWALGAYYYGLDVWGQGTTVTVSS
VL: DIVMTQSPLSLPVTPGEPASISCRSSQSLLHSDGYNYLDWYLQKSGQSPQLLIYLGSNRASGVPDRFSGSGSGTDFTLKISRMEAEDVGVYYCMQALQTPYTFGQGTKLEIK
notes: as for B1
B6: H4H16987P (antibody, human IgG4 S228P, kappa, V domains shown)
VH: EVQLVESGGGLVQPGGSLRLSCAASGFTVSSNSMSWVRQAPGEGLEWVSVIFSGGITYYSDSVKGRFTISRHNSKNTLYLQMNSLRTEDTAVYYCARHSNWNFDAFDIWGQGTMVTVSS
VL: DIQMTQSPSSLSASVGDRVTITCRASQSFDTYLNWYQQKPGKAPNLLIYATSSLQSGVPSRFSGSGSGTDFTLTISSLQPEDFGTYYCQQSYSIPYTFGQGTKLEIKR
notes: human IgG4 Fc; also called MAB4

biological target: T1, Apple (Mal d 1, MyBiosource, Cat …); assay: SPR, mAb captured via anti-hFc, 25 C
Experimental: (§1) Equilibrium dissociation constants (KD) for different related allergens binding to purified anti-Bet v 1 monoclonal antibodies were determined using a real-time surface plasmon resonance biosensor (SPR-Biacore) on a Biacore 4000 instrument. All binding studies were performed in 10 mM HEPES, 150 mM NaCl, 3 mM EDTA, and 0.05% v/v surfactant Tween-20, pH 7.4 (HBS-ET) running buffer at 25° C. […] Binding studies were performed on the following related allergens: Alder (Aln g 1, MyBiosource, Cat #MBS1041484), Apple (Mal d 1, MyBiosource, Cat #MBS1224919), Carrot (Dau c 1.2, MyBiosource, Cat #MBS1212920), Celery (Api g 1, MyBiosource, Cat #MBS1171376), Celery (Api g 2, MyBiosource, Cat #MBS1047880), European Hornbeam (Car b 1 isoform 1A & 1B, MyBiosource, Cat #MBS1200018), European Hornbeam (Car b 1 isoform 2, MyBiosource, Cat #MBS1043940), Hazel (Cor A 1, MyBiosource, Cat #MBS5304600), and White Oak (Que a 1, MyBiosource, Cat #MBS1258822). […] Association (kₐ) and dissociation (kd) rate constants were determined by fitting the real-time binding sensorgrams to a 1:1 binding model with mass transport limitation using Scrubber 2.0c curve-fitting software. Binding dissociation equilibrium constants (KD) and dissociative half-lives (t½) were calculated from the kinetic rate constants as:

Row | 100 nM Analyte Bound (RU) | binding result | Binder
1 | 1 | no binding (tested: 100 nM) | B1
2 | 0 | no binding (tested: 100 nM) | B2
3 | 0 | no binding (tested: 100 nM) | B3
4 | 0 | no binding (tested: 100 nM) | B4
5 | 0 | no binding (tested: 100 nM) | B5
6 | 2 | no binding (tested: 100 nM) | B6

Biological target: T2, CHO produced recombinant Bet v 1 …
Assay: SPR, mAb captured via anti-hFc, 25 C
Experimental: (§2) Equilibrium dissociation constants (KD) for natural Bet v 1 binding to purified anti-Bet v 1 monoclonal antibodies were determined using a real-time surface plasmon resonance biosensor (SPR-Biacore) on a Biacore 4000 instrument. All binding studies were performed in 10 mM HEPES, 150 mM NaCl, 3 mM EDTA, and 0.05% v/v surfactant Tween-20, pH 7.4 (HBS-ET) running buffer at 25° C. and 37° C. […] Association (kₐ) and dissociation (kd) rate constants were determined by fitting the real-time binding sensorgrams to a 1:1 binding model with mass transport limitation using Scrubber 2.0c curve-fitting software. Binding dissociation equilibrium constants (KD) and dissociative half-lives (t½) were calculated from the kinetic rate constants as:

Row | 100 nM natural Bet v 1- MMH Bound (RU) | Kd [nM] | koff [s⁻¹] | kon [M⁻¹ s⁻¹] | t½ [min] | binding result | Binder
7 | 46 | 0.804 | 0.00023 | 286000 | 50 | – | B1
8 | 63 | 2.9 | 0.000319 | 110000 | 36 | – | B2
9 | 76 | 1.03 | 0.000281 | 272000 | 41 | – | B3
10 | 61 | 0.735 | 0.000287 | 390000 | 40 | – | B4
11 | 1 | – | – | – | – | no binding (tested: 100 nM) | B5
12 | 46 | 43.8 | 0.0215 | 490000 | 0.5 | – | B6

biological target: T3, European Hornbeam (Car b 1 isoform 2, …); assay: SPR, mAb captured via anti-hFc, 25 C
Experimental: as §1

Row | 100 nM Analyte Bound (RU) | Kd [nM] | koff [s⁻¹] | kon [M⁻¹ s⁻¹] | t½ [min] | binding result | Binder
13 | 114 | 2.48 | 0.00241 | 971000 | 4.8 | – | B1
14 | 42 | 98.9 | 0.00577 | 58400 | 2 | – | B2
15 | 2 | – | – | – | – | no binding (tested: 100 nM) | B3
16 | 93 | 37.8 | 0.0404 | 1.07e+06 | 0.3 | – | B4
17 | 157 | 1.58 | 0.0032 | 2.03e+06 | 3.6 | – | B5
18 | 153 | 5.56 | 0.00561 | 1.01e+06 | 2.1 | – | B6

biological target: T4, European Hornbeam (Car b 1 isoform 1A & …); assay: SPR, mAb captured via anti-hFc, 25 C
Experimental: as §1

Row | 100 nM Analyte Bound (RU) | binding result | Kd [nM] | koff [s⁻¹] | kon [M⁻¹ s⁻¹] | t½ [min] | Binder
19 | 1 | no binding (tested: 100 nM) | – | – | – | – | B1
20 | 41 | – | 214 | 0.00673 | 31400 | 1.7 | B2
21 | 0 | no binding (tested: 100 nM) | – | – | – | – | B3
22 | 1 | no binding (tested: 100 nM) | – | – | – | – | B4
23 | 0 | no binding (tested: 100 nM) | – | – | – | – | B5
24 | 0 | no binding (tested: 100 nM) | – | – | – | – | B6

biological target: T5, Alder (Aln g 1, MyBiosource, Cat …); assay: SPR, mAb captured via anti-hFc, 25 C
Experimental: as §1

Row | 100 nM Analyte Bound (RU) | binding result | Kd [nM] | koff [s⁻¹] | kon [M⁻¹ s⁻¹] | t½ [min] | Binder
25 | 0 | no binding (tested: 100 nM) | – | – | – | – | B1
26 | 9 | – | 69.2 | 0.00643 | 92900 | 1.8 | B2
27 | 8 | no binding (tested: 100 nM) | – | – | – | – | B3
28 | 3 | no binding (tested: 100 nM) | – | – | – | – | B4
29 | 49 | – | 105 | 0.0278 | 264000 | 0.4 | B5
30 | 139 | – | 3.94 | 0.00087 | 221000 | 13 | B6

Biological target: T2, CHO produced recombinant Bet v 1 …
Assay: SPR, mAb captured via anti-hFc, 37 C
Experimental: as §2

Row | 100 nM natural Bet v 1-MHH Bound (RU) | Kd [nM] | koff [s⁻¹] | kon [M⁻¹ s⁻¹] | t½ [min] | Binder
31 | 56 | 1.58 | 0.00073 | 462000 | 16 | B1
32 | 78 | 6.8 | 0.00116 | 171000 | 9.9 | B2
33 | 89 | 2.02 | 0.000899 | 445000 | 13 | B3
34 | 67 | 1.48 | 0.00106 | 717000 | 11 | B4
35 | 2 | – | – | – | – | B5
36 | 36 | 106 | 0.0847 | 795000 | 0.14 | B6

biological target: T6, Celery (Api g 1, MyBiosource, Cat …); assay: SPR, mAb captured via anti-hFc, 25 C
Experimental: as §1

Row | 100 nM Analyte Bound (RU) | binding result | Binder
37 | 0 | no binding (tested: 100 nM) | B1
38 | 0 | no binding (tested: 100 nM) | B2
39 | 0 | no binding (tested: 100 nM) | B3
40 | 0 | no binding (tested: 100 nM) | B4
41 | -1 | – | B5
42 | 1 | no binding (tested: 100 nM) | B6
